Reference: US20170145086A1 (VISTERRA, published 2017)

Assays:
[1] = biological target: T1, HA-GCN4 mAPRIL (amino acid residues 96-241) (mouse, UniProt Q9D777 96-241, Assembles as a homotrimer through the GCN4 zipper; one protomer is given.); assay: indirect ELISA on mouse APRIL; row printed 4504, legend paragraph 738 says 4540
T1 construct: Bought (R&D Systems); also called HA-tagged mouse APRIL (R&D Systems); recombinant mouse APRIL; not shown: N-terminal HA tag and GCN4 isoleucine-zipper trimerisation domain, with any linker, of the bought R&D Systems protein
T1 sequence: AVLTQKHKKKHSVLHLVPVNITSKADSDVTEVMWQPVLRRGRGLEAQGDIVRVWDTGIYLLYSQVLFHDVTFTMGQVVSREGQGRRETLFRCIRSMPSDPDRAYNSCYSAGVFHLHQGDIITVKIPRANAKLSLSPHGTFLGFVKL

[2] = biological target: T2, HA-GCN4 hAPRIL (amino acid residues 105-250) (human, UniProt O75888 105-250); assay: blocking ELISA; blocked: human APRIL binding to TACI-Fc
T2 construct: Bought (R&D Systems); also called HA-tagged GCN4 human APRIL; HA-GCN4-huAPRIL; not shown: N-terminal HA tag; GCN4 isoleucine zipper oligomerization domain
T2 sequence: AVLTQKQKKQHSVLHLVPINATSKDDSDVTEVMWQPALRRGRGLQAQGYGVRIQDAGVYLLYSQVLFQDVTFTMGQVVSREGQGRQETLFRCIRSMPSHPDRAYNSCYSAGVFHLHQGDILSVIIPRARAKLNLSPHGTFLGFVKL

[3] = biological target: T2, HA-GCN4 hAPRIL (amino acid residues …); assay: cell-based or functional assay

EC50 [1]: 0.00151 nM | IC50 [2]: 0.4 nM | Relative Activity (normalised to 2419) [2]: 1.45 | IC50 (inhibition of APRIL-mediated BCMA NFκB signaling) [3]: ~0.81 nM | IC50 (inhibition of APRIL-mediated TACI NFκB signaling) [3]: ~2.25 nM
B1: monoclonal antibody 4540 (antibody, V domains shown)
VH: QVQLQQSGPELVKPGASVKISCKASGYTFADYYINWVKQRPGQGLEWIGWIFPGSGSTYYNEKFKGKATLTVDKSSSTAYMLLSSLTSEDSAVYFCARGDSGRAMDYWGQGTSVTVSS
VL: DIQMTQSPSSLSASLGGKVTITCKASQDINKYIAWYQHKPGKGPRLLIHYTSTLQSGIPSRFSGSGSGRDYSFSISNLEPEDNATYYCLQYDNLLTFGAGTKLELK
notes: mouse-derived
